Reference: the Immune Epitope Database (IEDB)

Tests used:
HLA-A*69:01 = assay: IEDB peptide-MHC binding, purified MHC/direct/fluorescence; filed as Kd, often an IC50 or EC50 that approximates it; ≥ and ≤ were set here for values at or beyond the usual limits of such assays
HLA-A*02:01 [1] = assay: as above
HLA-B*40:01 = assay: as above; conditions: source organism: Rickettsia prowazekii
HLA-B*15:01 = assay: as above
HLA-B*58:01 = assay: as above; conditions: source organism: Rickettsia prowazekii
HLA-A*26:01 = assay: IEDB peptide-MHC binding, purified MHC/competitive/radioactivity; filed as Kd, often an IC50 or EC50 that approximates it; ≥ and ≤ were set here for values at or beyond the usual limits of such assays; conditions: source organism: Dengue virus 2 Jamaica/1409/1983
HLA-A*02:01 [2] = assay: IEDB peptide-MHC binding, purified MHC/competitive/fluorescence; ≥ and ≤ were set here for values at or beyond the usual limits of such assays
HLA-A*30:01 = assay: IEDB peptide-MHC binding, purified MHC/competitive/radioactivity; filed as Kd, often an IC50 or EC50 that approximates it; ≥ and ≤ were set here for values at or beyond the usual limits of such assays
HLA-B*44:02 = assay: as above
HLA-B*44:03 = assay: as above
HLA-A*02:01 [3] = assay: IEDB peptide-MHC binding, purified MHC/competitive/fluorescence; filed as Kd, often an IC50 or EC50 that approximates it; ≥ and ≤ were set here for values at or beyond the usual limits of such assays; conditions: source organism: Vaccinia virus
HLA-A*31:01 = assay: IEDB peptide-MHC binding, purified MHC/direct/fluorescence; filed as Kd, often an IC50 or EC50 that approximates it; ≥ and ≤ were set here for values at or beyond the usual limits of such assays; conditions: source organism: SARS-CoV1
HLA-A*03:01 = assay: as above; conditions: source organism: SARS-CoV1
HLA-A*33:01 = assay: IEDB peptide-MHC binding, purified MHC/competitive/radioactivity; filed as Kd, often an IC50 or EC50 that approximates it; ≥ and ≤ were set here for values at or beyond the usual limits of such assays; conditions: source organism: SARS coronavirus Tor2
HLA-A*68:01 = assay: as above; conditions: source organism: SARS coronavirus Tor2
HLA-A*24:02 = assay: as above; conditions: source organism: Dengue virus 2 Jamaica/1409/1983
[4] = source organism: Giardia lamblia ATCC 50803
[5] = source organism: Vaccinia virus WR
[6] = source organism: Dengue virus 2 Jamaica/1409/1983
[7] = source organism: Dengue virus 4 Philippines/H241/1956
[8] = source organism: Sudan ebolavirus
[9] = source organism: Cryptosporidium parvum
[10] = source organism: Mycobacterium tuberculosis

## GMSLLEYGV
HLA-A*69:01; [4]
  Kd: ≥ 20000 nM
HLA-A*02:01 [1]; [4]
  Kd: 3.5 nM

## GQFGSGWTW
HLA-B*40:01
  Kd: 2870 nM
HLA-B*15:01; source organism: Rickettsia prowazekii
  Kd: 138 nM
HLA-B*58:01
  Kd: 168 nM

## GTIGAVSLDF
HLA-A*26:01
  Kd: 454 nM

## GVATDVPSA
HLA-A*02:01 [2]; source organism: Zaire ebolavirus
  IC50: 1460 nM

## HVKAFYKFI
HLA-A*30:01; [5]
  Kd: 0.346 nM

## IESALNDTW
HLA-B*44:02; [6]
  Kd: 127 nM
HLA-B*44:03; [6]
  Kd: 67.9 nM

## IESSKNQTW
HLA-B*44:02; [7]
  Kd: 135 nM
HLA-B*44:03; [7]
  Kd: 158 nM

## IKKPDGSEC
HLA-A*02:01 [2]; [8]
  IC50: ≥ 318000 nM

## KCLNIMLGK
HLA-A*30:01; source organism: Mammarenavirus brazilense
  Kd: 24.9 nM

## KLIIHNPEL
HLA-A*02:01 [3]
  Kd: 2 nM

## KLIQIEKVL
HLA-A*69:01; [9]
  Kd: ≥ 20000 nM
HLA-A*02:01 [1]; [9]
  Kd: 3250 nM

## KLSSLGLNAV
HLA-A*02:01 [2]; source organism: Hepatitis C virus subtype 1b
  IC50: 25 nM

## KMSEYKGPV
HLA-A*31:01
  Kd: 2090 nM
HLA-B*15:01; source organism: SARS-CoV1
  Kd: 6670 nM
HLA-A*03:01
  Kd: 10600 nM
HLA-A*02:01 [1]; source organism: SARS-CoV1
  Kd: 1520 nM

## KNRNSKRSV
HLA-A*30:01; [5]
  Kd: 32.7 nM

## KTKRYLPAI
HLA-A*30:01; [6]
  Kd: 100 nM

## KVIQPRVEK
HLA-A*31:01
  Kd: 427 nM
HLA-A*33:01
  Kd: 7340 nM
HLA-A*68:01
  Kd: 890 nM

## KVRKIISKI
HLA-A*30:01; [5]
  Kd: 27.2 nM

## KVVRLTPQV
HLA-A*30:01; [5]
  Kd: 178 nM

## KYKQSNTNK
HLA-A*30:01; [5]
  Kd: 103 nM

## LDPIPYDPKF
HLA-A*24:02
  Kd: 2420 nM

## LILAKPKET
HLA-A*02:01 [2]; [8]
  IC50: 10800 nM

## LLPGVAHSI
HLA-A*69:01; source organism: Amur virus
  Kd: ≥ 20000 nM
HLA-A*02:01 [1]; source organism: Amur virus
  Kd: 4.2 nM

## LLWAFAHRQ
HLA-A*69:01; [10]
  Kd: ≥ 20000 nM
HLA-A*02:01 [1]; [10]
  Kd: 551 nM
